These results are taken from article PMC8959893, “T-Cell Responses to Immunodominant Listeria Epitopes Limit Vaccine-Directed Responses to the Colorectal Cancer Antigen, Guanylyl Cyclase C” (Frontiers in Immunology, 2022).

The target in the test is T1, peptide-H-2K^d complex (Mus musculus, UniProt P01902).
T1 construct: expressed in transfected cells; host or cells: RMA-S (TAP-deficient), stably expressing H-2K^d; provided by Dr. Sean Murphy (University of Washington)
T1 sequence (P01902 22-368): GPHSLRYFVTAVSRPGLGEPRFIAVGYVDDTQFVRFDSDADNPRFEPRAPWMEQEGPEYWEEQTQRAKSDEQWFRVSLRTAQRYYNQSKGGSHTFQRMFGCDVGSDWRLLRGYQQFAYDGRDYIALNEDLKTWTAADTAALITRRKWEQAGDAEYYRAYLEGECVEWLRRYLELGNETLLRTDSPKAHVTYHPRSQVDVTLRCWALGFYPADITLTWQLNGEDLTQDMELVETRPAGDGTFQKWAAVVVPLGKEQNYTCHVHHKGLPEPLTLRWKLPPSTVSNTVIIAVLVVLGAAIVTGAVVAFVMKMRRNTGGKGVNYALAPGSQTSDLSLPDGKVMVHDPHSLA
T1 sequence (P01887 21-119 partner): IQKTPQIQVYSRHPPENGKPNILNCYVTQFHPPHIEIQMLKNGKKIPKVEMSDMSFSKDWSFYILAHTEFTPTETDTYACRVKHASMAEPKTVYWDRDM
Type of test: cell-based. The note with it: for half-life (t1/2) of peptide-H-2K^d complex: Figure 4D, flow cytometry MFI, nonlinear regression of two experiments. How it is done: As previously described ([27]), RMA-S-H-2K^d cells were incubated overnight at 26°C with 30 ug/mL of each peptide. In the morning, cells were incubated 2 h at 37°C, washed 3x with PBS to remove unbound peptide, and incubated an additional 2, 4, or 6 h at 37°C. Cells were then stained with anti-H-2K^d-PE antibody (Invitrogen, Clone SF1-1.1.1), and surface H-2K^d was quantified as mean fluorescence intensity (MFI) by flow cytometry. The percent change in surface peptide-H-2K^d complexes was calculated using the formula, MFI^peptide−MFI^no peptide/MFI^0 hrs−MFI^no peptide×100 ([28]). The t1/2 for the peptide-MHC complex was calculated by nonlinear regression.

The mark [1] stands for this setting: RMA-S-H-2K^d cells, 30 ug/mL peptide overnight at 26°C, 2 h at 37°C, washed, additional 2, 4 or 6 h at 37°C.

On to “GUCY2C254-262: dominant H-2K^d-restricted CD8+ T-cell epitope of mouse guanylyl cyclase C, residues 254-262 (SFYDVKGDL; UniProt Q3UWA6 254-262, looked up, fragment)”, for which the “Dissociation from MHC, fold faster than Lm-derived peptide-H-2K^d complexes” value (Figure 3, stated in Discussion) is recorded as over 5 fold. Besides, under “Figure 3C, RMA-S-H-2K^d cells, 30 ug/mL peptide overnight at 26°C, 2 h at 37°C, washed, additional 2, 4 or 6 h at 37°C, anti-H-2K^d-PE MFI by flow cytometry, nonlinear regression, representative of two experiments”, the “t1/2 of peptide-H-2K^d complex” value is 1.8 h. Moreover, the “half-life (t1/2) of peptide-H-2K^d complex” value (“half-life” for short) under setting [1] was 2.1 h.

For “GUCY2CF255Y: GUCY2C254-262 peptide variant with F255Y point mutation at an H-2K^d anchoring residue (SYYDVKGDL; UniProt Q3UWA6 254-262, looked up, variant F255Y)”, under setting [1], the “half-life” value is listed as 8.3 h.

“GUCY2CL262I: GUCY2C254-262 peptide variant with L262I point mutation at an H-2K^d anchoring residue (SFYDVKGDI; UniProt Q3UWA6 254-262, looked up, variant L262I)”: under setting [1], the “half-life” value is listed as 1.0 h.
